This note sets out measurements from US20110274696A1 (Amgen, published 2011).

Substitutions are numbered along the chain they refer to. Numbers in names are those of the source. Where “and” joins values, the source holds several entries; their conditions need not be identical. Equal values may be shown once. Where no end group is shown, it is not given here.

Broadly, the Kd is the equilibrium constant for the complex coming apart. In general, EC50 (read off the curve) refers to the concentration at which the effect is half-maximal.

Assay [1] addresses T1, human CCR2 (human, UniProt P41597-2 1-360).
T1 sequence: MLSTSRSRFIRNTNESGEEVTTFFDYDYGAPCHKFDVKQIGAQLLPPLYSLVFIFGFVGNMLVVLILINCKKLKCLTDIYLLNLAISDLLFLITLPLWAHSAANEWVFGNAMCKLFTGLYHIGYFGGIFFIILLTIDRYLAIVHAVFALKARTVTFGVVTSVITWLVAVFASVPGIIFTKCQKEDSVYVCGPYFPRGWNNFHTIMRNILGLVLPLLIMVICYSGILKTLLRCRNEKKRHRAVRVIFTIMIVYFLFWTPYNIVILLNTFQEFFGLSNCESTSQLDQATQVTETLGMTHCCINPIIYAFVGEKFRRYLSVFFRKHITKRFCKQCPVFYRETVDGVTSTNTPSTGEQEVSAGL
The experiment in a line: cell-based or functional assay.

In assay [2] the target is T1, human CCR2. The experiment in a line: cell-based or functional assay. This is another data set of the same source.
Assay [3] has as its target T2, biotinylated CCR2 loop 3 peptide (human, also: biotinylated, position not given here).
T2 construct: Synthetic peptide (AnaSpec) captured on a NeutrAvidin plate; also called third loop
T2 peptide: QEFFGLSNCESTSQLDQ
Briefly: peptide ELISA. As to the method: (§1) In addition, epitope binding to the first and/or second loop of CCR2 was also assessed using a peptide ELISA. A Reacti-Bind NEUTRAVIDIN™ Coated, High Binding Capacity ELISA plate (Pierce; Rockford, Ill.) was washed 3× with PBS/0.05% Tween20 and then coated with 100 ul/well of 6 ug/ml biotinylated CCR2 loop 2 (SEQ ID NO:129) or loop 3 (SEQ ID NO:130) peptide (AnaSpec; San Jose, Calif.). The plate was incubated for 1 hour and then washed 3×. The CCR2 antagonist antibody 4.40.3 A68G S230P or other primary antibody, diluted in PBS/0.1% BSA/0.05% Tween20, was then added to the plate in serial dilution and incubated for 1 hour, as were other controls. The plate was washed 3× and 100 ul/well HRP-Mouse anti-Human IgG4 secondary antibody (Zymed; So. San Francisco, Calif.) was added to all the wells at 1:5000 dilution and incubated for 1 hour. The plate was washed 3× and TMB substrate was added to all the wells and incubated for ˜30 minutes. The color reaction was stopped with 2M H₂SO₄ and the absorbance reading was measured on a plate reader at […] (FIG. 8).
A general note: ELISA stands for enzyme-linked immunosorbent assay.

Assay [4] concerns the target T3, biotinylated CCR2 loop 2 peptide (human, biotinylated (position not given)).
T3 construct: Synthetic peptide (AnaSpec) captured on a NeutrAvidin plate; also called second extracellular loop peptide
T3 peptide: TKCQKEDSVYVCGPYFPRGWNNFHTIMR
Briefly: peptide ELISA, biotinylated peptide on NeutrAvidin plate. Here is the method:
as §1

In assay [5] the target is T1, human CCR2. The experiment in a line: FACS saturation binding, 3 hour assay, 300-19 cells expressing human CCR2; full-length human CCR2 on transfected 300-19 cells, not the chimera; KD in ug/mL. Here is the method: (§2) Briefly, using a buffer of Dulbecco's Phosphate Buffered Saline containing 2% heat inactivated Fetal Bovine Serum, 0.002% Sodium Azide and 0.005 mg/ml Cytochalasin-B (Sigma 6762), 1 million cells in a volume of 100 ul were stained with the test antibody. Fifteen minutes later, a secondary detection antibody, R-Phycoerythrin conjugated Affini-pure F(ab′) fragment Donkey anti-human IgG H+L (Jackson 709-116-149), was added. Tubes were gently shaken for 3 hours at room temperature. After 2 washes in buffer, cells were resuspended in 500 ul of buffer and assessed on a FACS CALIBUR™. A total of 10,000 events per tube were assessed. The mean channel fluorescent intensity was assessed for each concentration of antibody as an indicator for the magnitude of staining.

Assay [6] addresses T1, human CCR2. The experiment in a line: FACS saturation binding (3 hour assay) on CCR2 transfected 300-19 cells, PE anti-human IgG detection. As to the method: as §2
The target in assay [7] is T4, RMMR chimeric receptor (N-terminus and 3rd loop of CCR1; 1st and 2nd loops of CCR2), FLAG-tagged.
T4 construct: also called 1st and 2nd loops of CCR2 (RMMR)
Briefly: FACS saturation binding on RMMR chimera transfected 300-19 cells. Here is the method:
(§3) Fifteen minutes later, a secondary detection antibody, R-Phycoerythrin conjugated Affini-pure F(ab′) fragment Donkey anti-human IgG H+L (Jackson 709-116-149), was added. Tubes were gently shaken for 3 hours at room temperature. After 2 washes in buffer, cells were resuspended in 500 ul of buffer and assessed on a FACS CALIBUR™. A total of 10,000 events per tube were assessed. The mean channel fluorescent intensity was assessed for each concentration of antibody as an indicator for the magnitude of staining.
(§4) Binding of antibodies to the CCR2/CCR1 chimeric receptors was assessed using FACS analysis. All receptors were tagged at the N-terminus with FLAG and also stained with the anti-FLAG antibody M1 such that receptor expression could be confirmed. FIGS. 6A & B illustrate the FACS staining of FLAG on the N-terminus with M1 antibody (FIG. 6A) as compared to the staining of 4.40 (FIG. 6B). FIG. 6C illustrates a saturation binding curve of the 4.40 A68G S230P antibody on RMMR chimera transfected 300-19 cells.

Assay [8] deals with T4, RMMR chimeric receptor (N-terminus and …). Briefly: FACS saturation binding on 300-19 cells expressing the chimera with the first and second extracellular loops of CCR2 (FIG. 6C). As to the method:
as §3, §4

Assay [9] concerns the target T2, biotinylated CCR2 loop 3 peptide. The experiment in a line: capture ELISA, biotinylated CCR2 loop 3 peptide on a NeutrAvidin plate, HRP anti-human IgG4, absorbance at 450 nm. Here is the method: as §1
In the next assay the target is T5, CCR5 (human, UniProt P51681 1-352).
T5 construct: also called recombinant CCR5; human CCR5
T5 sequence (P51681 whole entry): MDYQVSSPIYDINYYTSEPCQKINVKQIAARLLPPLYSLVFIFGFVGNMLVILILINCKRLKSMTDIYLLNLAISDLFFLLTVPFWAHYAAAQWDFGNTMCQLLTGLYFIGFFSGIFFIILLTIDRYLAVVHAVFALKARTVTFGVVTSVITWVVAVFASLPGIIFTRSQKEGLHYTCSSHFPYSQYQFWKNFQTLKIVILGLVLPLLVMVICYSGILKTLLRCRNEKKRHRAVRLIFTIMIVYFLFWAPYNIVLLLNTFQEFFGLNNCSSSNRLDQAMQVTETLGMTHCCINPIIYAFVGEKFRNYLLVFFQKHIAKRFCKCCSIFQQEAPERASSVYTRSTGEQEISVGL
Briefly: FACS, AF-488 conjugated antibody on 300-19 cells expressing recombinant CCR5. As to the method: The selectivity of the 4.40 A68G S230P antibody for human CCR2 was confirmed by the absence of binding to a closely related chemokine receptor, CCR5, as shown in FIG. 9 and by the lack of inhibition of chemotaxis induced by the CCR5/CCR1 ligand MIP-1a (FIG. 3). […] For these studies, 300.19 cells engineered to express CCR5 were incubated with either the CCR2 selective antibody, 4.40 A68G S230P, or the CCR5-selective antibody for 30 minutes. Cells were then washed in FACS buffer (0.02% sodium azide, 2% heat inactivated fetal bovine serum in PBS) and analyzed for cell surface expression using a flow cytometer using standard methods.
In general terms: In flow cytometry, cells or beads pass a laser one at a time.

Assay [10] concerns the target T3, biotinylated CCR2 loop 2 peptide. Briefly: capture ELISA, biotinylated CCR2 loop 2 peptide on a NeutrAvidin plate, HRP anti-human IgG4, absorbance at 450 nm. Here is the method:
as §1

A further assay addresses cynomolgus monkey CCR2 (cynomolgus monkey). The experiment in a line: cell-based or functional assay.
In assay [11] the target is T1, human CCR2. The experiment in a line: cell-based or functional assay. The source holds these as a separate data set.

B1: anti-CCR2 monoclonal antibody 4.39.3 (antibody, human IgG4, kappa, V domains shown)
VH: QVQLVQSGAEVKKPGASVKVSCKASGYTFTSYYIHWVRQAPGQGLEWMGMINPSGGPTSYAQKFQGRVTMTRDTSTSTVYMDLSSLRSEDTAVFYCARERWYKWNFDAFDIWGQGTMVTVSS
VL: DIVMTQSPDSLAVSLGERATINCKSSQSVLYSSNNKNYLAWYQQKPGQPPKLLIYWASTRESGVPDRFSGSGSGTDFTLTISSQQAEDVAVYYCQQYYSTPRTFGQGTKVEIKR
For the molecule B1, in the assay with human CCR2 [1], the “Chemotaxis IC50” value came to 0.139 µg/mL. For the same molecule, the “Inhibition of MCP-1-induced THP-1 Chemotaxis, IC50” value with human CCR2 [2] stood at 0.139 µg/mL.

B2: anti-CCR2 monoclonal antibody 4.40 (antibody, V domains shown)
VH: QVQLVESGGGVVQPGRSLRLSCAASGLTFSSYGMHWVRQAPGKGLEWVAVILYDGKNKYYADSVKGRFTISRDNSKNTLYLQMNSLRAEDTAVYYCARDQAYWTYFDAFDIWGQGTMVTVSS
VL: EIVLTQSPDFQSVTPKEKVTITCRASQSIGSSLHWYQQKPDQSPKLLIKYASQSFSGVPSRFSGSGSATDFTLTINSLEAEDAATYYCHQSSSLPLTFGGGTKVEIKR
notes: Hybridoma clone from IgG4 XenoMouse mice; Variable domains were also cloned into IgG1, IgG2 and IgG4 formats; also called 4.40.2; 4.40.3
As to B2, the binding result in [3] was “no binding”; in assay [4], “binds”. In the assay with human CCR2 [1], the “Chemotaxis IC50” value turned out to be 0.13 µg/mL. The “Inhibition of MCP-1-induced THP-1 Chemotaxis, IC50” value with human CCR2 [2] stood at 0.137 µg/mL.

B3: anti-CCR2 monoclonal antibody 4.9 (antibody, human IgG4, kappa, V domains shown)
VH: B2 VH with L27F, I51Q, L52T, K56R, N77K, S85R, T104K
VL: DIQMTQSPSSLSTSVGDRVTITCRASQSISSYLNWYQQKPGKAPKLLIYAASSLQSGVPSRFSGSGSGTDFTLTISSLQPEDFATYYCQQSYNSPCSFGQGTKLEIKR
notes: Hybridoma clone from IgG4 XenoMouse mice; also called 4.9.2; 4.9.3
On to B3, for which the binding result in assay [3] was “no binding”; in assay [4], “binds”. Moreover, the “Chemotaxis IC50” value with human CCR2 [1] worked out at 0.198 µg/mL. The “Inhibition of MCP-1-induced THP-1 Chemotaxis, IC50” value with human CCR2 [2] was 0.198 µg/mL.

B4: anti-CCR2 antibody 4.40 A68G S230P (antibody, human IgG4 S228P, kappa, V domains shown)
VH: B2 VH
VL: B2 VL with A68G
notes: Recombinant human IgG4 with the hinge mutation S230P (heavy chain) and the germline reversion A68G (light chain) of 4.40; also called 4.40.3 A68G S230P; 4.40.2 A68G S230P
With B4, the Kd was 0.085 µg/mL with human CCR2 [5]; 0.0849 µg/mL with human CCR2 [6]; 0.0226 µg/mL in assay [7]; 0.023 µg/mL and 0.16 nM in [8]. Also, the “EC50 (read off the curve)” value was about 0.08 µg/mL in the assay with human CCR2 [6] and about 0.05 µg/mL in [7]. The values for the binding result (in [9]; in the assay with CCR5; in assay [10]) were “no binding (tested: about 6 ug/ml)”, “no binding” and “binds”, respectively. For the same molecule, the “inhibition of MCP-1 induced whole blood actin polymerization in the cynomolgus monkey, IC50” value with cynomolgus monkey CCR2 came out at 0.49 µg/mL. Moreover, in the assay with human CCR2 [11], the “inhibition of MCP-1 induced actin polymerization in monocytes, human whole blood, IC50” value was determined as 0.168 µg/mL. For the same molecule, the “inhibition of MCP-1 induced pERK phosphorylation in human whole blood, IC50” value with human CCR2 [11] is 0.44 µg/mL and 2.9 nM. Moreover, the “inhibition of chemotaxis of THP-1 monocytes in response to MCP-1, IC50” value with human CCR2 [11] was found to be 0.148 µg/mL. Moreover, the “inhibition of collagen IAI mRNA synthesis in LI90 cells induced by MCP-1, IC50” value in the assay with human CCR2 [11] is 0.89 µg/mL and 6.2 nM.
